According to article PMC13544220, “Glycemic and bodyweight effects of GIPR coding variation reflect differences in surface expression and intrinsic functional impairment” (Science Advances, 2026):

Tests used:
Assay type in all cases: cell-based, human
[1] = test system: wild-type and variant SNAP-GIPR; assay: Surface SNAP-GIPR expression (SNAP-tag labelling) in AD293 cells; conditions: for AD293 Surface: Fig S3E, mean; for Surface SNAP-GIPR expression: sheet Fig 1C;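 for all read-outs here: scaled to the experimental average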
Procedure, shortened: (§1)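 Surface GIPR is quantified from wide-field images after labelling intact transfected cells with a membrane-impermeant SNAP probe at 500 nM for 10 min at room temperature. Specific signal, corrected for nontransfected cells, is normalized to the experiment-wide average or to wild-type.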

[2] = test system: wild-type and variant SNAP-GIPR; assay: Surface SNAP-GIPR expression (SNAP-tag labelling) in INS-1 cells; conditions: Fig 4G; Mean
Procedure, shortened: as §1

[3] = test system: wild-type and variant SNAP-GIPR; assay: Constitutive and agonist-mediated internalization, reversible SNAP-tag labelling, AD293 cells; design: key to Internalisation, Vehicle / Internalisation, +GIP / Internalisation, GIP-only: % internalization: residual fluorescence after Mesna vs pre-Mesna; Surface expression: unit not given here; conditions: Mean
Procedure, shortened: (§2)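 Surface SNAP-GIPR signal removable by Mesna was tracked by imaging before and 10 min after treatment in pH 8.6 TNE buffer. Internalization is the Mesna-resistant share of specific fluorescence.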

[4] = test system: wild-type and variant SNAP-GIPR; assay: cADDis cAMP imaging in AD293 cells, ensemble, expression-matched and per decile; conditions: Fig S3F, cADDis, mean
Procedure, shortened: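 Per-cell cAMP from cADDis intensity over time, with cells excluded by IBMX/FSK response criteria. Expression matching used wild-type surface-SNAP deciles, top and bottom trimmed, mean of decile means. Ensemble values ignore deciles. Wide-field imaging at 37 °C in KRBH with 6 mM glucose, 0.1% BSA, 24 h post-transfection in AD293.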

[5] = test system: wild-type and variant SNAP-GIPR; assay: Single-concentration GIP cAMP response by HTRF in AD293 cells; conditions: Fig S3F, HTRF, mean;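 note: ratio to experiment-wide average response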
Method: (§3) All variants were tested in parallel on each occasion to control for transfection efficiency differences between experiments.

[6] = test system: wild-type and variant SNAP-GIPR; assay: Constitutive and agonist-mediated internalization, reversible SNAP-tag labelling, INS-1 cells; design: key to Internalisation, GIP-only / Internalisation, Vehicle / Internalisation, +GIP: % internalization: residual fluorescence after Mesna vs pre-Mesna; conditions: Mean
Procedure, shortened: as §2

[7] = test system: wild-type and variant SNAP-GIPR; assay: Single-concentration GIP cAMP response by HTRF in INS-1 cells; conditions: Fig S3E, mean
Method: as §3

B1: S64A (protein, UniProt P48546 22-466, looked up, variant S64A)
Gastric inhibitory …: RAETGSKGQTAGELYQRWERYRRECQETLAAAEPPSGLACNGAFDMYVCWDYAAPNATARASCPWYLPWHHHVAAGFVLRQCGSDGQWGLWRDHTQCENPEKNEAFLDQRLILERLQVMYTVGYSLSLATLLLALLILSLFRRLHCTRNYIHINLFTSFMLRAAAILSRDRLLPRPGPYLGDQALALWNQALAACRTAQIVTQYCVGANYTWLLVEGVYLHSLLVLVGGSEEGHFRYYLLLGWGAPALFVIPWVIVRYLYENTQCWERNEVKAIWWIIRTPILMTILINFLIFIRILGILLSKLRTRQMRCRDYRLRLARSTLTLVPLLGVHEVVFAPVTEEQARGALRFAKLGFEIFLSSFQGFLVSVLYCFINKEVQSEIRRGWHHCRLRRSLGEEQRQLPERAFRALPSGSGPGEVPTSRGLSSGTLPGPGNEASRELESYC
- AD293 Surface ([1]; column repeated, paired with cAMP 100 nM): 0.5377
- AD293 Surface ([1]; paired with cAMP 100 pM): 0.5377
- Surface SNAP-GIPR expression ([1]; replicate 1): 0.5948
- Surface SNAP-GIPR expression ([1]; replicate 2): 0.3831
- Surface SNAP-GIPR expression ([1]; replicate 3): 0.1917
- Surface SNAP-GIPR expression ([1]; replicate 4): 0.03284
- Surface SNAP-GIPR expression ([1]; replicate 5): 0.714
- Surface SNAP-GIPR expression ([1]; replicate 6): 0.449
- Surface SNAP-GIPR expression ([1]; replicate 7): 0.6736
- Surface SNAP-GIPR expression ([1]; replicate 8): 0.7024
- Surface SNAP-GIPR expression ([1]; replicate 9): 0.4646
- Surface SNAP-GIPR expression ([1]; replicate 10): 0.5884
- Surface SNAP-GIPR expression ([1]; replicate 11): 0.4154
- Surface SNAP-GIPR expression ([1]; replicate 12): 0.584
- Surface SNAP-GIPR expression ([1]; replicate 13): 0.53
- Surface SNAP-GIPR expression ([1]; replicate 14): 0.7656
- Surface SNAP-GIPR expression ([1]; replicate 15): 0.5316
- Surface SNAP-GIPR expression ([1]; replicate 16): 0.5279
- Surface SNAP-GIPR expression ([1]; replicate 17): 0.5713
- Surface SNAP-GIPR expression ([1]; replicate 18): 0.5329
- Surface SNAP-GIPR expression ([1]; replicate 19): 0.5212
- Surface SNAP-GIPR expression ([1]; replicate 20): 0.6932
- Surface SNAP-GIPR expression ([1]; replicate 21): 0.7203
- Surface SNAP-GIPR expression ([1]; replicate 22): 0.5804
- Surface SNAP-GIPR expression ([1]; replicate 23): 0.6278
- Surface SNAP-GIPR expression ([1]; replicate 24): 0.5394
- Surface SNAP-GIPR expression ([1]; replicate 25): 0.4918
- Surface SNAP-GIPR expression ([1]; replicate 26): 0.6002
- Surface SNAP-GIPR expression ([1]; replicate 27): 0.6328
- Surface SNAP-GIPR expression ([1]; replicate 28): 0.5573
- Surface SNAP-GIPR expression ([1]; replicate 29): 0.4754
- Surface SNAP-GIPR expression ([1]; replicate 30): 0.4312
- Surface SNAP-GIPR expression ([1]; replicate 31): 0.4378
- Surface SNAP-GIPR expression ([1]; replicate 32): 0.606
- Surface SNAP-GIPR expression ([1]; replicate 33): 0.6793
- Surface SNAP-GIPR expression ([1]; replicate 34): 0.4646
- Surface SNAP-GIPR expression ([1]; replicate 35): 0.5832
- Surface SNAP-GIPR expression ([1]; replicate 36): 0.4138
- Surface SNAP-GIPR expression ([1]; replicate 37): 0.5632
- Surface SNAP-GIPR expression ([1]; replicate 38): 0.4283
- Surface SNAP-GIPR expression ([1]; replicate 39): 0.6589
- Surface SNAP-GIPR expression ([1]; replicate 40): 0.5446
- Surface SNAP-GIPR expression ([1]; replicate 41): 0.5428
- Surface expression [2]: 0.6025
- +GIP internalisation (100 nM) ([3]; Fig 4E, GIP 100 nM): 0.3536
- GIP-specific internalisation (100 nM) ([3]; Fig 4E, GIP 100 nM): 0.06262
- Constitutive internalisation (100 nM) ([3]; Fig 4E): 0.291
- Surface expression ([3]; Fig 4E): 0.5133
- Internalisation, +GIP ([3]; Fig S4C, AD293): 68.8859
- Internalisation, GIP-only ([3]; Fig S4C, AD293): 12.125
- Internalisation, Vehicle ([3]; Fig S4C, AD293): 56.7609
- AD293 100 pM cADDis ([4]; AD293, 100 pM): 21.6969
- AD293 100 nM cADDis ([4]; AD293, 100 nM): 34.42
- AD293 100 pM HTRF ([5]; AD293, 100 pM): 0.1562
- AD293 100 nM HTRF ([5]; AD293, 100 nM): 1.061
- +GIP internalisation (100 nM) ([6]; Fig 4G, GIP 100 nM): 0.3425
- GIP-specific internalisation (100 nM) ([6]; Fig 4G, GIP 100 nM): 0.05503
- Constitutive internalisation (100 nM) ([6]; Fig 4G): 0.2874
- Internalisation, +GIP ([6]; Fig S4C, INS-1): 52.768
- Internalisation, GIP-only ([6]; Fig S4C, INS-1): 8.16
- Internalisation, Vehicle ([6]; Fig S4C, INS-1): 44.608
- INS-1 cAMP (100 nM) [7]: 1.062
